Test results taken from patent publication US20110200585A1 (GlaxoSmithKline, published 2011).

T1: Mouse FcRn (mouse, UniProt Q61559 22-297; P01887 21-119, limits assumed)
T1 sequence (looked up) 1: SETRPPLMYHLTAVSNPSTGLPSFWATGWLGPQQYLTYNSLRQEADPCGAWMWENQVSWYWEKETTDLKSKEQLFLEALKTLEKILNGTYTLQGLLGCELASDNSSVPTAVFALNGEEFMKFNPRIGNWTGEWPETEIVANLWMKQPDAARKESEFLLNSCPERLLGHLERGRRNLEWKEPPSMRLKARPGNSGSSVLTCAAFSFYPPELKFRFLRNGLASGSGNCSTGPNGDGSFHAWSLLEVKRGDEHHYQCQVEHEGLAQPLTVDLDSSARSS
T1 sequence (looked up) 2: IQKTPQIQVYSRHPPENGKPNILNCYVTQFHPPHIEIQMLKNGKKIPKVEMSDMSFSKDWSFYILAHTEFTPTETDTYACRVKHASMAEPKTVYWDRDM

T2: rat FcRn (rat, UniProt P13599 23-298; P07151 21-119, limits assumed)
T2 sequence (looked up) 1: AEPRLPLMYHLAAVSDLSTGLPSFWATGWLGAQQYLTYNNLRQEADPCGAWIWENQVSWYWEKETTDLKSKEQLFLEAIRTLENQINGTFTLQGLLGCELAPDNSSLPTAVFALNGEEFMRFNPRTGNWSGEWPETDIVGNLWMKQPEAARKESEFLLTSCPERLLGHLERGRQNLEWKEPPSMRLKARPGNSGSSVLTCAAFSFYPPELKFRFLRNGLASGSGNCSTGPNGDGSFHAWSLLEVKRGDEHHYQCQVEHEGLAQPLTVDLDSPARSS
T2 sequence (looked up) 2: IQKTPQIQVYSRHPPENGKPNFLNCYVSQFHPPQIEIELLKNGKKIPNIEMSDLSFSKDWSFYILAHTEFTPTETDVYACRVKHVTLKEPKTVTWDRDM

T3: Fcγ2a (Arg) (UniProt P12318 34-217)
T3 construct: also called Fc Gamma IIa, Arg form
T3 sequence (looked up): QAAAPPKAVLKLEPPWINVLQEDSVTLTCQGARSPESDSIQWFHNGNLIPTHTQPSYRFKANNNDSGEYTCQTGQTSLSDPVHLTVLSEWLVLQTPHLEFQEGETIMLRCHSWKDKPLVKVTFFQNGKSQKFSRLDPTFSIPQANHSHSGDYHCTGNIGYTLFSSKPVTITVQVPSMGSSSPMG

T4: Fcγ2a (His) (UniProt P12318 34-217)
T4 construct: also called Fc Gamma IIa, His form
T4 sequence (looked up): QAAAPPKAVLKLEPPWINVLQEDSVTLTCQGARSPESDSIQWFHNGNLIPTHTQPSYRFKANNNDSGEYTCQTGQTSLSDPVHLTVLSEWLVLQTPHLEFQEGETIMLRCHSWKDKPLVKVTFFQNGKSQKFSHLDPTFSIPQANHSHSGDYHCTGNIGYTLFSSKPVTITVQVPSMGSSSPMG

T5: human IL-7Rα (CD127) on cells (human, UniProt P16871 21-459)
T5 chain: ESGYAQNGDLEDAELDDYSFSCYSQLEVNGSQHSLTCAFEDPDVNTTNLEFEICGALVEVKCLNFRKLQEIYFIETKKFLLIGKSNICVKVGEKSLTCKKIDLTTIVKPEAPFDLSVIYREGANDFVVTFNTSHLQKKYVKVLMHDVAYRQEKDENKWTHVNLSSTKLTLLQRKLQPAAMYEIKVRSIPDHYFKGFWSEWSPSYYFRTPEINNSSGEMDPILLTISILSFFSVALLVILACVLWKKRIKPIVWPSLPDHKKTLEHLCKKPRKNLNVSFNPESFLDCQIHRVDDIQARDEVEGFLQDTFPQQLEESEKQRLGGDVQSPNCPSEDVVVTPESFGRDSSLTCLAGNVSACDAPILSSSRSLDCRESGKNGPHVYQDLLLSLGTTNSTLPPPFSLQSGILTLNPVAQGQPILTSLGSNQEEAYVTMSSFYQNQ


What was measured:
[1] = biological target: T1, Mouse FcRn; experiment: SPR, ProteOn XPR36; antibody amine-coupled to GLM chip, FcRn 8-2048 nM as analyte, equilibrium fit, pH 6.0
Experimental: (§1) The work was carried out on the ProteOn XPR36 surface plasmon resonance machine (BioRad). The antibodies to be tested were coupled to a GLM biosensor chip by primary amine coupling. […] All binding sensograms were double referenced with a 0 nM injection (i.e. buffer alone). The data was fitted to the Equilibrium model inherent to the ProteOn analysis software.

[2] = biological target: Human FcRn (human, UniProt P55899 24-297; P61769 21-119, limits assumed); experiment: as above
Experimental: as §1

[3] = biological target: T2, rat FcRn; experiment: as above
Experimental: as §1

[4] = biological target: Cyno FcRn (cyno, UniProt Q8SPV9 24-297; Q8SPW0 21-119, limits assumed); experiment: as above
Experimental: as §1

[5] = biological target: T3, Fcγ2a (Arg); experiment: SPR, ProteOn XPR36; antibody amine-coupled to GLM chip, receptor 8-2048 nM as analyte, equilibrium fit, pH 7.4
Experimental: as §1

[6] = biological target: T6, Fcγ (Val) (UniProt P08637 17-208); experiment: as above
Experimental: as §1

[7] = biological target: T7, Fcγ1 (UniProt P12314 16-288); experiment: as above
T7 construct: also called Fc Gamma I
Experimental: as §1

[8] = biological target: T4, Fcγ2a (His); experiment: as above
Experimental: as §1

[9] = biological target: T8, Fcγ3a (Phe) (UniProt P08637 17-208); experiment: as above
T8 construct: also called Fc Gamma IIIa, Phe form
Experimental: as §1

[10] = biological target: T6, Fcγ (Val); experiment: SPR, ProteOn XPR36; antibody amine-coupled to GLM chip, receptor as analyte
Experimental: as §1

[11] = biological target: T4, Fcγ2a (His); experiment: as above
Experimental: as §1

[12] = biological target: T8, Fcγ3a (Phe); experiment: as above
Experimental: as §1

[13] = biological target: T5, human IL-7Rα (CD127) on cells; experiment: cell-based or functional assay

T8 sequence (P08637 17-208): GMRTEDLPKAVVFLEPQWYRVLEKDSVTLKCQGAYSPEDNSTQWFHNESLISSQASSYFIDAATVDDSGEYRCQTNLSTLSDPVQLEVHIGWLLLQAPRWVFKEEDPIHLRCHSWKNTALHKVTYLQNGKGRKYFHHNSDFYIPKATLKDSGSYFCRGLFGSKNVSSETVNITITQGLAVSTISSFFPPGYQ
T6 sequence (P08637 17-208 F176V): as the sequence (P08637 17-208) above, with F160V counted along it
T7 sequence (P12314 16-288): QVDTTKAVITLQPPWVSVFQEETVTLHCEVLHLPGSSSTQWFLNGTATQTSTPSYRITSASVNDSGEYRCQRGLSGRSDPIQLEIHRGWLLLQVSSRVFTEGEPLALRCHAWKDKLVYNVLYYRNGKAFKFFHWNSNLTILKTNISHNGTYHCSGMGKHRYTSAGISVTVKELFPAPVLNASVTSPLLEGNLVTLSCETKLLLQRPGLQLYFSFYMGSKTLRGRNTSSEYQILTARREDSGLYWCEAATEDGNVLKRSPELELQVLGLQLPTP

| Kd [1] [nM] | Kd [2] [nM] | Kd [3] [nM] | Kd [4] [nM] | Kd [5] [nM] | Kd [6] [nM] | Kd [7] [nM] | Kd [8] [nM] | Kd [9] [nM] | IC50 of inhibition of IL-7 induced STAT5 phosphorylation in human PBMC (flow cytometry) [13] [µg/mL] | Binder | binding result [10] | binding result [11] | binding result [12] |
| --- | --- | --- | --- | --- | --- | --- | --- | --- | --- | --- | --- | --- | --- |
| 192 | 183 | 145 | 210 | 1250 | 319 | 21.4 | 1040 | 990 |  | 1A11 H3L4 (antibody, IgG1, Humanised IgG1 kappa; also called BPC1142; anti-IL7R 1A11 H3L4; copies: 2 + 2) heavy: not shown light: EIVLTQSPATLSLSPGERATLSCSASSSVTYMHWYQQKPGQAPRPLIYEISKLASGIPARFSGSGSGTDFTLTISSLEPEDFAVYYCQEWNYPYTFGGGTKVEIKRTVAAPSVFIFPPSDEQLKSGTASVVCLLNNFYPREAKVQWKVDNALQSGNSQESVTEQDSKDSTYSLSSTLTLSKADYEKHKVYACEVTHQGLSSPVTKSFNRGEC |  |  |  |
| 207 | 158 | 163 | 248 |  |  |  |  |  |  | 1A11 H3L4Fc (antibody, also called Fc-disabled anti-IL7R mAb; Fc-disabled 1A11 H3L4; copies: 2 + 2) heavy: not shown light: EIVLTQSPATLSLSPGERATLSCSASSSVTYMHWYQQKPGQAPRPLIYEISKLASGIPARFSGSGSGTDFTLTISSLEPEDFAVYYCQEWNYPYTFGGGTKVEIKRTVAAPSVFIFPPSDEQLKSGTASVVCLLNNFYPREAKVQWKVDNALQSGNSQESVTEQDSKDSTYSLSSTLTLSKADYEKHKVYACEVTHQGLSSPVTKSFNRGEC | no binding (tested: up to 2048 nM receptor) | no binding (tested: up to 2048 nM receptor) | no binding (tested: up to 2048 nM receptor) |
|  |  |  |  |  |  |  |  |  | 0.088 | parental 1A11 monoclonal antibody (antibody, V domains shown) VH: EVQLQQSGPELLKPGASMKISCKASGYSFTGYTMNWVKQSHGKNLEWIGLINPYNGVTSYNQKFKGKATLTVAKSSSTAYMELLSLTSEDSAVYYCARGDGNYWYFDVWGAGTTVTVSS VL: EIVLTQSPAITAASLGQKVTITCSASSSVTYMHWYQQKSGTSPKPWIYEISKLASGVPVRFSGSGSGTSYSLTISSMEAEDAAIYYCQEWNYPYTFGGGTKLEIK |  |  |  |
